What was measured:
[1] = I-V relationship, plateau phase; conditions: glycan lost; control: wild type
[2] = cell surface biotinylation, Western blot; conditions: glycan lost; control: wild type
[3] = whole-cell patch clamp, +100 mV; conditions: glycan lost; control: untreated WT (DMSO)
I-V relationship = conditions: glycan lost; control: untreated WT (DMSO)

| Substance | other: channel voltage dependence [1] | localisation_or_trafficking [2] | other: channel deactivation kinetics, other: deactivation slope [3] | other: channel voltage dependence (I-V relationship) |
| --- | --- | --- | --- | --- |
| TRPM4 (TRPM4b): N992Q | no change | no change |  |  |
| TRPM4 (TRPM4b): tunicamycin (10 μg/ml; 19 h) |  |  | no change, 5265 ± 572 vs 4855 ± 379 | no change |
